According to doi:10.1101/742957:
“And” between values parts separate entries of the source, which are not always exact repeats. Identical values can stand only once.

Biological target: Recombinant human transferrin (human) (UniProt P02787)
Experiment: SEC-MALS

percent dimer: 12%
percent trimer: 2%
stoichiometry N: 2 and 3
Substance: Recombinant human transferrin (from UniProt P02787 20-698) (natural protein)
